For one data set, the system named is T1, MrUGT78W1.
T1 construct: gene UGT78W1; full length, 469 residues (ORF 1410 bp), pET-32a(+) in E. coli BL21(DE3)pLysS, HisTALON purified, tag cleavage not mentioned; gene on chromosome 7
Briefly: UDP-Glo glycosyltransferase assay, luminescence. The following applies: 650 μM UDP-Gal, Tris-HCl 100 mM pH 8.5, 30°C. Type of data set: biochemical, Morella rubra. The text has this: UDP-Glo glycosyltransferase assay, luminescence on MrUGT78W1

Substrate in the data set “purified protein”: O=c1c(O)c(-c2cc(O)c(O)c(O)c2)oc2cc(O)cc(O)c12
Kind of data set: purified protein. The following applies: 650 μM UDP-Rha, Tris-HCl 100 mM pH 7.5, 35°C.

Substrate in data set [1]: O=c1c(O)c(-c2ccc(O)c(O)c2)oc2cc(O)cc(O)c12
Kind of data set: UDP-Glo glycosyltransferase assay, luminescence. The data set is classed as biochemical, Morella rubra. Conditions: 650 μM UDP-Rha, Tris-HCl 100 mM pH 7.5, 35°C. From the text: (§1) UDP-Glo glycosyltransferase assay, luminescence on MrUGT78R2

Substrate in data set [2]: O=c1c(O)c(-c2ccc(O)cc2)oc2cc(O)cc(O)c12
Briefly: UDP-Glo glycosyltransferase assay, luminescence. Conditions: 650 μM UDP-Rha, Tris-HCl 100 mM pH 7.5, 35°C. Type of data set: biochemical, Morella rubra.
Description: as §1

For orientation: Km means the concentration of substrate that gives half-maximal velocity. `O=c1c(O)c(-c2ccc(O)cc2)oc2cc(O)cc(O)c12` [K, Kaempferol]: the Michaelis-Menten constant (Km) in the data set on MrUGT78W1 turned out to be 50 ± 4.63 µM.
Still for that read-out and setting: the same measure for `O=c1c(O)c(-c2ccc(O)c(O)c2)oc2cc(O)cc(O)c12` [Q, Quercetin]: 93.5 ± 2.69 µM; for `O=c1c(O)c(-c2cc(O)c(O)c(O)c2)oc2cc(O)cc(O)c12` [M, Myricetin]: 13.7 ± 0.92 µM.

B1: MrUGT78R2 (Morella rubra) (protein)
chain: MTQSSQDQHVAVLAFPLGCHPWPLLNLACKLACAAPNVRFSFFNTPKSNSKLFSTSQAEPPQNLKAYDVADGVPEGHVFTPGNPVEELELFLNAAPESFRNGMDMAVAETGREISCLLTDAFLVFASEMALDMHAKWVPFWVPAPHSLSAHMYSDLIYETYTNVCGGGEDGINTSDGDNYGTGTLGGIKPIDKTLDVIPGLSIMRFRDLPQQLLLGDFNSSLFSSALYRIGAVLPQASAVIMNSFQELNPATLTDDLKSKFQNLLYVGFLTLTLPPPPPPPSHSDATGCLPWLDDQKPTSVAYISFGTVSAVPPHEFVALAEALEASHVPFLWSLRDNFKEILPTGFLQRTRTQGKIVPWAPQAHVLAHKAVGVYVTHCGYNSVFESVVGEVPMICRPILGDNMFNGRMVEDVWGIGVGVEGGVFTKNGMLKSLEVVLGEEHGKRMREKIRDIKDLVVKAAGPTGIASKDFNTLVEVISK
notes: full length, 480 residues (ORF 1443 bp), pET-32a(+) in E. coli BL21(DE3)pLysS, HisTALON purified, tag cleavage not mentioned
Usually kcat/Km stands for the second-order rate constant that governs catalysis at low substrate concentration. Regarding B1, the values for the Michaelis-Menten constant (Km) (in “purified protein”; in data set [1]; in data set [2]) were 66.78 ± 3.56 µM, 61.81 ± 8.74 µM and 58.11 ± 5.52 µM, respectively. In addition, the specificity constant (kcat/Km) is 34700 M⁻¹ s⁻¹ in the data set “purified protein”, 45900 ± 4500 M⁻¹ s⁻¹ in data set [1] and 37800 ± 2500 M⁻¹ s⁻¹ in data set [2].

Values taken from PMC9437722, “Identification of UDP-rhamnosyltransferases and UDP-galactosyltransferase involved in flavonol glycosylation in Morella rubra” (Horticulture Research, 2022).
